Measured values from patent US20230040568A1 (ALBERT EINSTEIN COLLEGE OF MEDICINE, published 2023).
Where a chain is given by its changes, count along the chain named.

T1: HHLA2 expressed on cells (3T3 cell line expressing HHLA2; HHLA2/K562) (UniProt Q9UM44 23-414, limits assumed)
T1 construct: whole, on cells
T1 sequence (looked up): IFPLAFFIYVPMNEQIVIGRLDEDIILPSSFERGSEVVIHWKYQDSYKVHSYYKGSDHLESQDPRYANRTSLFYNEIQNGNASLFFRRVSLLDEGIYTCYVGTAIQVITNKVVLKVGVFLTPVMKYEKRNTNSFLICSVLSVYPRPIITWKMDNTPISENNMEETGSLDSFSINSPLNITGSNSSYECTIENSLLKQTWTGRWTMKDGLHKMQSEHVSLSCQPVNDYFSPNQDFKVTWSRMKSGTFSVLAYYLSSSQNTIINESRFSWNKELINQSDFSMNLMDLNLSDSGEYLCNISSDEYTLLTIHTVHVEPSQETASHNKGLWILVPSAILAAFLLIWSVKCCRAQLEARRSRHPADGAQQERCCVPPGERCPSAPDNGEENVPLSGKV

T2: HHLA2 EC-Ig-Fc fusion polypeptide (UniProt Q9UM44 23-344)
T2 construct: extracellular domain; also called whole extracellular part of HHLA2; not shown: Ig Fc part
T2 sequence (looked up): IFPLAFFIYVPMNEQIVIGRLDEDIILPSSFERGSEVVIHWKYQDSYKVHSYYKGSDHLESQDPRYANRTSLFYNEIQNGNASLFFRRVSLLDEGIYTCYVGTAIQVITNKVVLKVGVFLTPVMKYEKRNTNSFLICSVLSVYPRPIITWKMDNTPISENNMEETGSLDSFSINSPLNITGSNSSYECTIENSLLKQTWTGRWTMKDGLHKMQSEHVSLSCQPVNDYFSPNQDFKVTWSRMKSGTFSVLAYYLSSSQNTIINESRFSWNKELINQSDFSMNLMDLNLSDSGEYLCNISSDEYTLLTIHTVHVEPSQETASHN

B1: KIR3DL3 expressed on cells (3T3 cell line expressing KIR3DL3; KIR3DL3+ NK92 cells; primary KIR3DL3+ NK cells and CD8 T cells) (receptor)
chain: QDKPFLSAWPGTVVSEGQHVTLQCRSRLGFNEFSLSKEDGMPVPELYNRIFRNSFLMGPVTPAHAGTYRCCSSHPHSPTGWSAPSNPVVIMVTGVHRKPSLLAHPGPLVKSGETVILQCWSDVRFERFLLHREGITEDPLRLVGQLHDAGSQVNYSMGPMTPALAGTYRCFGSVTHLPYELSAPSDPLDIVVVGLYGKPSLSAQPGPTVQAGENVTLSCSSRSLFDIYHLSREAEAGELRLTAVLRVNGTFQANFPLGPVTHGGNYRCFGSFRALPHAWSDPSDPLPVSVTGNSRNLHVLIGTSVVIIPFAILLFFLLHRWCANKKNAVVMDQEPAGNRTVNREDSDEQDPQEVTYAQLNHCVFTQRKITRPSQRPKTPPTDTSV
notes: also called KIR3DL3-expressing 3T3 cells; KIR3DL3 WT
B2: monoclonal 37A3 (antibody, V domains shown)
VH: QVQLVETGGGLVRPGNSLKLSCVTSGFTFSNYRMHWLRQPPGKRLEWIAVITVKSDNYGANFAESVKGRFTISRDDSKSSVYLQMNRLREEDTATYYCSRGSGPGFAYWGQGTLVTVS
VL: DIVMTQSPSSLSVSAGEKVTMSCKSSQSLLNSGNQKNYLAWYQQKPGQPPKLLIYGASTRESGVPDRFTGSGSGTDFTLTISSVQAEDLAVYYCQNDHSYPFTFGSGTKLEIK
notes: Mouse hybridoma mAb
B3: monoclonal 26E10 (antibody, V domains shown)
VH: QAYLQQSGAELVRSGASVKMSCKASGYTFTSYNIHWVKQTPGQGLEWIGYIYPGDGVTNYNQKFKGKATLTADTSSSTAYMQISSLTSEDSAVYFCARSGNYGNYEGFAYWGQGTLVTVSA
VL: DIKMTQSPSSMYASLGERVTITCKASQDTNSYLSWFQQKPGKSPKTLIYRANRLVDGVPSRFSGSGSGQDYSLTISSLEYEDMGIYYCLQYDEFPYTFGGGTKLEIK
B4: monoclonal 12A10 (antibody, V domains shown)
VH: B3 VH with I34M, Y52F, V57G, N101Y
VL: DIKMTQSPSSMYASLGERVTITCKASQDINSYLSWFQQKPGKSPKTLIYRANRLVDGVPSRFSGSGSGQDYSLTISSLEYEDMGIYYCLHYAEFPYTFGGGTKLEIKR
B5: monoclonal 31C4 (antibody, V domains shown)
VH: B3 VH with I34M, Y52F, V57G
VL: B4 VL with H90Q, A92D
notes: Mouse hybridoma mAb; Entries include leader (and vector-derived residues in the VL)
B6: monoclonal 14F8 (antibody, V domains shown)
VH: QVQLQQSGPEVVRPGVSVKISCKGSGYTFTDYTMHWVKQSHAKSLEWIGVISTYNGNTNYNQNFEGKATMTVDKSSSTAYMELARLTSEDSAIYYCARERGGDGYYSAVDYWGQGTSVTVS
VL: SIVMTQTPKFLLVSAGDRVTITCKASQSVINDVAWYQQKPGQSPKLLIYYASNRYTGVPDRFTGSGYGTDFTFTISTVQAEDLAVYFCQQDYSSPYTFGGGTKLEIKR
B7: monoclonal 29H7 (antibody, V domains shown)
VH: QVQLQQSGPEVVRPGVSVKISCKGSGYTFTDYVMHWVKQSHGKSLEWIGVISTYNGNTNYNQKFKGKATMTVDKSSSTAYMELARLTSEDSAIYYCARERGGDGYYSAMDYWGQGTSVTVSS
VL: B6 VL with T22A, D32N, K45E, S76T
notes: Mouse hybridoma mAb; Entries include (partial) leader
B8: monoclonal 11G8 (antibody, V domains shown)
VH: QVQLQQSGPDLVRPGVSVKISCKGSGYTFTDYAMHWVKQSHAKSLEWIGVISTDSGTTNYNQKFKGKATMTVDKSSSTAYMDLARLTSEDSAIYYCARDSSYYVRFSYWGQGTLVTVSA
VL: B6 VL with A15V, I30S, Y96W
notes: Mouse hybridoma mAb; Entries include leader
B9: monoclonal 51C3 (antibody, V domains shown)
VH: EVQLQQSGPELVKPGASVKISCKTSGYTFTEYIMHWVKQSHGKSLEWIGGINPNNGGTNYNQKFKGKATLTVDTSSSIAYMELRSLTSEDSAVYYCARDDGYYVKFAYWGQGTLVTVSA
VL: B6 VL with Y96F, G100S
notes: as for B8
B10: monoclonal 3B7 (antibody, V domains shown)
VH: QVQLQQSGPEVVRPGVSVKISCKGSGYTFSDYTMHWVKQSHAKSLEWIGVISTDNGNTNYNQKFKGKATMTVDKSSSTAYMELARLTSEDSAIYYCAREARDYGSIYALDYWGQGTSVTVS
VL: DIQMTQSPASLSASVGETVTITCRASGNIHNYLAWYQQKQGKSPQLLVYNAKTLADGVPSRFSGSGSGTQYSLKINNLQPEDFGNYYCQHFWSTPWTFGGGTKLEIKR
notes: Mouse hybridoma mAb; Entries include leader; Counted on the printed text
B11: monoclonal 34B10 (antibody, V domains shown)
VH: EVKLVESGGVLVQPGGSLRLSCATSGFTFTDYYMGWVRQPPGKALEWLGFIRNKANGYTTESSASVKGRFTISRDNSQSILYLQMNTLRAEDSATYYCARDYYSGSSLDYWGQGTTLTVSS
VL: DIQMTQTTSSLSASLGDRVTISCRASQDISNYLNWYQQKPDGTVKLLIYYTSRLHSGVPSRFSGSGSGTDYSLSISNLEQEDIATYFCQQGYTLPYTFGGGTKLEIKR
notes: as for B8
B12: monoclonal 8G7 (antibody, V domains shown)
VH: EVMLVESGGGLVKPGGSLKLSCAASGFTFSTYAMSWVRQTPEKRLEWVATILSGGNYTYYPDSVKGRFTISRDNAKNTLNLQMSSLRSEDTAMYYCVIPYGSSPFDYWGQGTTLTVS
VL: SIVMTQTPKFLLVSAGDRVTITCKASQSVSNDVAWYQQKPGQSPKLLIYYASNRYTGVPDRFTGSGYGTDFTFTISTVQAEDLAVYFCQQDYSSPWTFGGGTKLEIK
notes: Mouse hybridoma mAb; also called anti-KIR3DL3 mAb clone 8G7
B13: monoclonal 30D10 (antibody, V domains shown)
VH: EVQLQQSGAELVRPGALVKLSCKASGFNFKDYFMHWVKQRPEQGLEWIGWIDPENGNTIYEPKFQGKASITADTSSNTAYLQLSSLTSEDTAVYYCARGGVGHWYFDVWGAGTTVTVS
VL: DIVLTQSPASLAVSLGQRATISCKASQSVDYDGDSYMNWYQQKPGQPPKLLIYVASNLKSGIPARFSGSGCGTDFTLNIHPVEEEDGATYYCQQTNEDPWTFGGGTKLEIK
notes: Mouse hybridoma mAb; VH entry includes leader and vector-derived residues
B14: KIR3DL3 D0-Ig fusion polypeptide (Fc fusion)
chain: QDKPFLSAWPGTVVSEGQHVTLQCRSRLGFNEFSLSKEDGMPVPELYNRIFRNSFLMGPVTPAHAGTYRCCSSHPHSPTGWSAPSNPVVIMVTGVHRKPSLLA
notes: Expressed in an S2 system; also called KIR3DL3 DO-Ig; KIR3DL3 D0(Q26-A128)-Ig; not shown: human IgG1 Fc tag
B15: KIR3DL3 D0D1D2-Ig fusion polypeptide (Fc fusion)
chain: QDKPFLSAWPGTVVSEGQHVTLQCRSRLGFNEFSLSKEDGMPVPELYNRIFRNSFLMGPVTPAHAGTYRCCSSHPHSPTGWSAPSNPVVIMVTGVHRKPSLLAHPGPLVKSGETVILQCWSDVRFERFLLHREGITEDPLRLVGQLHDAGSQVNYSMGPMTPALAGTYRCFGSVTHLPYELSAPSDPLDIVVVGLYGKPSLSAQPGPTVQAGENVTLSCSSRSLFDIYHLSREAEAGELRLTAVLRVNGTFQANFPLGPVTHGGNYRCFGSFRALPHAWSDPSDPLPVSVTGNSRNLHVL
notes: Expressed in an S2 system; also called whole extracellular portion of KIR3DL3; whole extracellular part of KIR3DL3; not shown: human IgG1 Fc tag
B16: TMIGD2 expressed on 3T3 cells (receptor, UniProt Q96BF3 23-282, looked up)
chain: LSVQQGPNLLQVRQGSQATLVCQVDQATAWERLRVKWTKDGAILCQPYITNGSLSLGVCGPQGRLSWQAPSHLTLQLDPVSLNHSGAYVCWAAVEIPELEEAEGNITRLFVDPDDPTQNRNRIASFPGFLFVLLGVGSMGVAAIVWGAWFWGRRSCQQRDSGNSPGNAFYSNVLYRPRGAPKKSEDCSGEGKDQRGQSIYSTSFPQPAPRQPHLASRPCPSPRPCPSPRPGHPVSMVRVSPRPSPTQQPRPKGFPKVGEE
notes: whole, on cells
B17: TMIGD2-mIg fusion polypeptide (Fc fusion, UniProt Q96BF3 23-150, looked up)
chain: LSVQQGPNLLQVRQGSQATLVCQVDQATAWERLRVKWTKDGAILCQPYITNGSLSLGVCGPQGRLSWQAPSHLTLQLDPVSLNHSGAYVCWAAVEIPELEEAEGNITRLFVDPDDPTQNRNRIASFPG
notes: not shown: mouse Ig part (mIg), detected with anti-mouse IgG Fc

target: T1, HHLA2 expressed on cells (3T3 cell line …); assay: intercellular conjugate assay (FIG. 2B)

Does B1 bind?
Result: binds

target: T3, KIR3DL3 protein (antigen of the affinity determination of Table 3) (human, UniProt Q8N743 26-325, limits assumed); assay: method and antigen format not stated
T3 construct: also called human KIR3DL3

B2 was tested. Which Kd did it give?
Its Kd is 8.5 nM.

How did the Kd turn out when B3 was run?
The Kd was 0.17 nM.

With B4 as the binder, how does the Kd read?
Its Kd is 0.69 nM.

Which Kd does the source give for B5 here?
Its Kd is 0.72 nM.

B6 was tested. Which Kd did it give?
The Kd was 0.69 nM.

How did the Kd turn out when B7 was run?
Its Kd is 1.13 nM.

B8 was tested. Which Kd did it give?
The Kd was 0.29 nM.

B9 was tested. Which Kd did it give?
Its Kd is 0.19 nM.

How did the Kd turn out when B10 was run?
The Kd was 0.51 nM.

How did the Kd turn out when B11 was run?
The Kd was 1.51 nM.

With B12 as the binder, how does the Kd read?
The Kd was 0.11 nM.

For B13, which Kd is on record?
Its Kd is 0.16 nM.

target: T1, HHLA2 expressed on cells (3T3 cell line …); assay: FACS, staining of 3T3 cells expressing HHLA2 (FIG. 2C)

Does B14 bind?
Result: binds

Does B15 bind?
Result: binds

target: T2, HHLA2 EC-Ig-Fc fusion polypeptide; assay: FACS, staining of 3T3 cells expressing TMIGD2 (FIG. 8)
Excerpt: To examine the binding of TMIGD2 to HHLA2, 3T3 cell lines expressing TMIGD2 were stained with a HHLA2 EC-Ig-Fc fusion polypeptide, a HHLA-2-IgV1-hIgG fusion polypeptide, or Ig (control) (FIG. 8).

Does B16 bind?
Result: binds

target: T1, HHLA2 expressed on cells (3T3 cell line …); assay: FACS on 3T3 cells expressing HHLA2, TMIGD2-mIg (FIGS. 3A-3B)
Experimental: FIG. 3A is a chart depicting mean fluorescent intensity (MFI) of 3T3 cells expressing HHLA2 that were incubated with TMIGD2-mIg fusion polypeptide or control mIgG at the indicated concentrations prior to staining with 10 μg/ml KIR3DL3-hIg followed by Allophycocyanin (APC)-conjugated anti-human IgG Fc.
FIG. 3B is a chart depicting MFI of 3T3 cells expressing HHLA2 that were incubated with KIR3DL3-hIg fusion polypeptide or control hIgG at the indicated concentrations prior to staining with 10 μg/ml TMIGD2-mIg followed by APC anti-mouse IgG Fc.

Does B17 bind?
Result: binds
